Source: FireProtDB (doi:10.1529/biophysj.106.101162)
Several values for one entry are separate records, joined by “and”; a condition that tells them apart may be missing. Identical values can stand only once.

Conditions: Thermus thermophilus, 20 °C, GdnHCl, CD, Sodium acetate 50 mM, reversible: Yes, whole UniProt chain shown

B1: Cytochrome c oxidase subunit 2 wild type, P98052 (protein)
chain: AYTLATHTAGVIPAGKLERVDPTTVRQEGPWADPAQAVVQTGPNQYTVYVLAFAFGYQPNPIEVPQGAEIVFKITSPDVIHGFHVEGTNINVEVLPGEVSTVRYTFKRPGEYRIICNQYCGLGHQNMFGTIVVKE
unfolding free energy (pH 3.5): 2.85 kcal/mol and 2.2 kcal/mol
unfolding free energy (pH 4): 3.15 kcal/mol and 2.61 kcal/mol
unfolding free energy (pH 4.5): 3.56 kcal/mol and 2.84 kcal/mol and 2.73 kcal/mol
unfolding free energy (pH 5): 6.38 kcal/mol and 6.69 kcal/mol and 4.15 kcal/mol
unfolding free energy (pH 5.5): 9.01 kcal/mol
unfolding free energy (pH 6): 15.9 kcal/mol and 13.2 kcal/mol and 5.97 kcal/mol
unfolding free energy (pH 7): 20.2 kcal/mol and 15.4 kcal/mol
